Columns and labels:
human PD-L1 protein [1] = biological target: T1, human PD-L1 protein (human, UniProt Q9NZQ7 19-238, limits assumed); assay: ELISA on human PD-L1 protein; antibody treated for 20 min (all overlapping curves, including the -80 C control)
Method: (§1) The antibody samples were treated for 20 min at various temperature gradients respectively, and then centrifuged to remove the pellet. Then the amount of remaining antibody was evaluated by ELISA. (The temperature gradient includes: room temperature, 30° C., 40° C., 50° C., 60° C., 70° C., […]) (FIG. 4)

human PD-L1 protein [2] = biological target: T1, human PD-L1 protein; assay: ELISA on human PD-L1 protein; untreated antibody (D0) and antibody after 7 days at 40 C (D7)
Method: (§2) The antibody samples were treated separately at 40° C., and then centrifuged to remove the pellet. Then the amount of remaining antibody was evaluated by ELISA. (test after treatment at 40° C. for 7 days (D7) and 14 days (D14) separately; for each test, the untreated sample (D0) stored at −80° C. is used as a control) (FIG. 3)

human PD-L1 protein [3] = biological target: T1, human PD-L1 protein; assay: ELISA on human PD-L1 protein; antibody after 14 days at 40 C (D14)
Method: as §2

[4] = biological target: T2, PD-L1-HIS recombinant protein (human, UniProt Q9NZQ7 19-238, limits assumed); assay: SPR (Biacore 8K), antibody captured on chip, PD-L1-HIS analyte 2.5-80 nM, 1:1 binding model
T2 construct: not shown: His tag
Method: The chip surface was equilibrated with HBS-EP buffer at a flow rate of 10 μl/min for 5 min, and then a 1:1 mixture of “NHS+EDC” was injected at a flow rate of 10 μl/min for 420 sec to activate the chip. The capture antibody (goat anti-murine IgG) diluted in 10 mM sodium acetate buffer was injected for about 420 sec at a flow rate of 10 μl/min for coupling, and finally ethanolamine was injected for 420 sec at a flow rate of 10 μl/min to block the surface.
Three pre-cycles were performed with the HBS-EP buffer as a sample to balance the chip to stabilize the baseline. The antibody diluted in HBS-EP buffer was injected for 30 sec at a flow rate of 10 μl/min (where the antibody-antigen binding signal was controlled to about 100 RU by adjusting the capture time between 0-5 min), and then the chip was equilibrated with the buffer for 1 min. The low-concentration antigen 2.5 nM PD-L1-HIS was injected at a flow rate of 30 μl/min for 240/300 seconds, to allow the antigen to bind to the antibody, and then the buffer was injected at a flow rate of 30 μl/min for 720/600 seconds for dissociation. 50 mM HCl were injected three times each for 15 s at a flow rate of 100 μl/min for regeneration, to complete one cycle. The antigen concentration was changed (such as 5 nM PD-L1-HIS) to carry out the cycle for measurement at a next gradient concentration until all gradient concentrations (2.5 nM, 5 nM, 10 nM, 20 nM, 40 nM, 80 nM PD-L1-HIS) and the replicate (such as 10 nM PD-L1-HIS) were tested.
The experimental data was double subtracted (minus the background values of the control channel and zero concentration), and fitted to the “1:1 binding” model in the Biacore 8K evaluation software. Biacore 8K was used to determine the affinity of the antibody to the PD-L1-HIS recombinant protein.

[5] = biological target: T3, human PD-L1 on cell surface (human, UniProt Q9NZQ7 19-290); assay: cell-based or functional assay
human PD-L1 protein [6] = biological target: T1, human PD-L1 protein; assay: ELISA on human PD-L1 protein; antibody treated for 20 min at 70 C
Method: as §1

human PD-L1 protein [7] = biological target: T1, human PD-L1 protein; assay: ELISA on the antigen (human PD-L1); antibody untreated (0), after oxidative stress (AAPH, 24 h) or deamidation stress (pH 9.0, 48 h)
[8] = biological target: T4, monkey PD-L1 on cell surface (monkey); assay: flow cytometry on CHO cells expressing monkey PD-L1, fitted curve
T4 construct: whole, on cells; also called monkey PD-L1 cell line; CHO cells overexpressing monkey PD-L1
Method: (§3) CHO cells expressing human or monkey PD-L1 and parent cells as a negative control were washed 3 times with PBS. 2.5×10⁵ detection cells and 100 μl of 3-fold serial dilutions of purified antibody with an initial concentration of 300 nM were added to a 96-well plate and incubated at 4° C. for 1 hr. […] Finally, the cells were washed 3 times with PBS, and the signal was read on FACS BD Calibur.
Moreover, CHO cells overexpressing monkey PD-L1 were used to test the cross-recognition binding to monkey PD-L1 by the antibodies.

biotin-labeled PD-L1-Fc [9] = biological target: T5, biotin-labeled PD-L1-Fc (human, UniProt Q9NZQ7 19-238, limits assumed, biotin-labeled (sites not given)); assay: flow cytometry: biotin-PD-L1-Fc binding to CHO cells expressing human PD-1 with titrated antibody; enhancement of PD-L1/PD-1 binding
T5 construct: not shown: Fc part
Method: (§4) In the FACS test, CHO cells expressing human PD-1 and parent cells as a negative control were washed 3 times with PBS. 2.5×10⁵ detection cells and 50 μl of 3-fold serial dilutions of purified antibody with an initial concentration of 300 nM were added to a 96-well plate. […] Then the cells were washed 3 times with PBS, 100 μl of iFluor647-labeled streptavidin (1 μg/ml) was added, and the cells were incubated at 4° C. for 45 min. Finally, the cells were washed 3 times with PBS, and the signal was read on FACS BD Calibur.

human PD-L1 protein [10] = biological target: T1, human PD-L1 protein; assay: ELISA on human PD-L1 protein; antibody kept at 40 C for 0 (D0), 7 (D7) or 14 (D14) days
Method: as §2

biotin-labeled PD-L1-Fc [11] = biological target: T5, biotin-labeled PD-L1-Fc; assay: flow cytometry: biotin-PD-L1-Fc binding to CHO cells expressing human PD-1 with titrated antibody, fitted curve; enhancement
Method: as §4

biotin-labeled PD-L1-Fc [12] = biological target: T5, biotin-labeled PD-L1-Fc; assay: ELISA: biotin-PD-L1-Fc binding to coated human PD-1 with titrated antibody, OD 450 nm, fitted curve; enhancement
Method: (§5) The ELISA plate (Nunc) was coated with 100 μl/well of 0.5 μg/ml recombinant human PD-1 protein in PBS at 4° C. overnight. The plate was washed with PBS-T (0.05% Tween), and blocked with 200 μl/well of PBST containing 1% BSA at 37° C. for 0.5 hr. Then the blocking buffer was discarded, and 50 μl of 10 μg/ml purified antibody to be tested was added to the first test well. 3-fold serial dilutions were made, and a total of 11 test concentration gradients were given. […] The plate was washed 3 times with PBST, and incubated with 100 μl/well of Streptavidin-HRP (SA-HRP, GenScript) at 37° C. for 10 min. Finally, the plate was washed 5 times with PBST, and then a TMB developing solution (GenScript) was added and incubated at room temperature for 15 min in the dark. The reaction was terminated by adding 50 μl of 1M HCl stop solution (Sigma). The plate was read at 450 nm on a microplate reader.

biotin-labeled PD-L1-Fc [13] = biological target: T5, biotin-labeled PD-L1-Fc; assay: ELISA: biotin-PD-L1-Fc binding to coated human PD-1 with titrated antibody; enhancement of PD-L1/PD-1 binding
Method: as §5

[14] = biological target: T3, human PD-L1 on cell surface; assay: flow cytometry on CHO cells expressing human PD-L1, fitted curve
Method: as §3

human PD-L1 protein [15] = biological target: T1, human PD-L1 protein; assay: ELISA on the antigen (human PD-L1); antibody untreated (0), after oxidative stress (AAPH, 24 h) or deamidation stress (pH 9.0, 48 h); remark: listed apart in the source
human PD-L1 protein [16] = biological target: T1, human PD-L1 protein; assay: ELISA on human PD-L1 protein; antibody treated for 20 min at room temperature to 70 C and -80 C control (curves not told apart)
Method: as §1

human PD-L1 protein [17] = biological target: T1, human PD-L1 protein; assay: ELISA on the antigen (human PD-L1); antibody untreated (0), after oxidative stress (AAPH, 24 h) or deamidation stress (pH 9.0, 48 h); curves not told apart

T3 sequence (Q9NZQ7 19-290): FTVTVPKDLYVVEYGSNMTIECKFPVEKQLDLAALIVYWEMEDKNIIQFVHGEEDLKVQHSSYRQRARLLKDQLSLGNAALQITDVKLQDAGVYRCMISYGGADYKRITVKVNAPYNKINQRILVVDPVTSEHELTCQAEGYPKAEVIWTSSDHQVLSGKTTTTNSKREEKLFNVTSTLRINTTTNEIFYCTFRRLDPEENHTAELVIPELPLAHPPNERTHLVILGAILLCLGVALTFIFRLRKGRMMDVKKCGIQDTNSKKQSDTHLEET
T5 sequence (Q9NZQ7 19-238 limits assumed): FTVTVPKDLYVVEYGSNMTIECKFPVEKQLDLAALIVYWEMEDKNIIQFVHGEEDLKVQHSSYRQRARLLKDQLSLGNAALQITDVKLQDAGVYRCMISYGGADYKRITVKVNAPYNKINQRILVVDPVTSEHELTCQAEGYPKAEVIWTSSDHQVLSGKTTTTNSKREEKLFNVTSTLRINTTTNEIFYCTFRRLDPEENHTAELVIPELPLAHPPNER
T2 sequence (Q9NZQ7 19-238 limits assumed): as above
T1 sequence (Q9NZQ7 19-238 limits assumed): as above

| EC50 (read off the curve) (human PD-L1 protein [2]) [µg/mL] | EC50 (read off the curve) (human PD-L1 protein [3]) [µg/mL] | Kd [4] [nM] | koff [4] [s⁻¹] | kon [4] [M⁻¹ s⁻¹] | Bottom (best-fit value) of IL-2 release, mixed lymphocyte reaction [5] | EC50 (µg/ml) of IL-2 release, mixed lymphocyte reaction [5] [µg/mL] | LogEC50 (best-fit value) of IL-2 release, mixed lymphocyte reaction [5] | Span (best-fit value) of IL-2 release, mixed lymphocyte reaction [5] | Top (best-fit value) of IL-2 release, mixed lymphocyte reaction [5] | EC50 (read off the curve) (human PD-L1 protein [16]) [µg/mL] | Binder | also measured |
| --- | --- | --- | --- | --- | --- | --- | --- | --- | --- | --- | --- | --- |
| ~0.01 | ~0.02 | 0.82 | 0.000152 | 185000 | 1140 | 0.0311 | -1.51 | 950 | 2090 |  | AH01950 (antibody, human IgG1, V domains shown, also called mPD-L1Ab-CBM clone AH01950) VH: QVQLQESGPGLVKPSQTLSLTCTVSGYSITSGYTWHWIRQHPGKGLEWIGYIHYSGSTKYNPSLKSRVTISRDTSKNQFSLKLSSVTAADTAVYYCARNSLFASWGQGTLVTVSS VL: DIVLTQSPDSLAVSLGERATINCRASESVDTYGDSFMHWFQQKPGQPPKLLIYRASNLESGVPDRFSGSGSGTDFTLTISSLQAEDVAVYYCQQSNEAPYTFGGGTKLEIK | EC50 (read off the curve) (human PD-L1 protein [1]): ~0.01 µg/mL; EC50 (read off the curve) (human PD-L1 protein [6]): ~0.03 µg/mL; EC50 (read off the curve) (human PD-L1 protein [7]): ~0.01 µg/mL |
|  |  | 0.835 | 0.000155 | 186000 | 1170 | 0.0295 | -1.53 | 866 | 2030 | ~0.01 | AH01946 (antibody, human IgG1, V domains shown, also called mPD-L1Ab-CBM clone AH01946) VH: QVQLQESGPGLVKPSQTLSLTCTVSGYSITSGYTWHWIRQHPGKGLEWIGYIHYSGSTKYNPSLKSRVTISRDTSKNQFSLKLSSMTAADTAVYYCARNSLFASWGQGTLVTVSS VL: DIVLTQSPDSLAVSLGERATINCRASESVDTYGDSFMHWFQQKPGQPPKLLIYRASNLESGVPDRFSGSGSGTDFTLTISSVQAEDVAVYYCQQSNEAPYTFGGGTKLEIK | EC50 [8]: 3.29 nM; LogEC50 [8]: 0.518; EC50 (biotin-labeled PD-L1-Fc [9]): 28.1 nM; EC50 (read off the curve) (human PD-L1 protein [10]): ~0.01 µg/mL; LogEC50 (biotin-labeled PD-L1-Fc [11]): 1.45; LogEC50 (biotin-labeled PD-L1-Fc [12]): 1.34; EC50 (biotin-labeled PD-L1-Fc [13]): 0.0219 µg/mL; EC50 [14]: 0.501 nM; LogEC50 [14]: -0.3; EC50 (read off the curve) (human PD-L1 protein [15]): ~0.01 µg/mL |
| ~0.01 | ~0.02 | 1.27 | 0.000274 | 216000 | 1420 | 0.0406 | -1.39 | 930 | 2350 | ~0.01 | AH01963 (antibody, human IgG1, V domains shown, also called mPD-L1Ab-CBM clone AH01963) VH: QVQLQESGPGLVKPSQTLSLTCTVSGYSITSGYTWHWIRQHPGKGLEWIGYIHYSGSTKYNPSLKSRVTISRDTSKNQFSLKLSSVTAADTAVYYCARNSLFASWGQGTLVTVSS VL: DIVLTQSPDSLAVSLGERATINCRASESVDTYGDSFMHWYQQKPGQPPKLLIYRASNLESGVPDRFSGSGSGTDFTLTISSVQAEDVAVYYCQQSNEAPYTFGGGTKLEIK | EC50 (read off the curve) (human PD-L1 protein [17]): ~0.02 µg/mL |

Reference: patent publication US20220073618A1 (NANJING GENSCRIPT BIOTECH, published 2022)
